B1: Cold shock protein CspB, P41016 (parent)
chain: MQRGKVKWFNNEKGYGFIEVEGGSDVFVHFTAIQGEGFKTLEEGQEVSFEIVQGNRGPQAANVVKL

Variants of: B1
Conditions: Bacillus caldolyticus, pH 7, Thermal, Na cacodylate/HCl 0.1 M, reversible: Yes, structure 1C9O, whole UniProt chain shown

Variant | ddG of mutation (higher = less stable) (75 °C, CD, NaCl 0-2 M) [kcal/mol] | heat capacity change of unfolding (75 °C, CD, NaCl 0-2 M) [kcal/mol/K] | ddG of mutation (higher = less stable) (75 °C, CD, NaCl 2 M) [kcal/mol] | heat capacity change of unfolding (75 °C, CD, NaCl 2 M) [kcal/mol/K] | ddG of mutation (higher = less stable) (75 °C, CD) [kcal/mol] | heat capacity change of unfolding (75 °C, CD) [kcal/mol/K] | Tm (CD) [°C] | change of melting temperature, mutant - wild type (higher = more stable) (CD) [°C] | heat capacity change of unfolding (CD) [kcal/mol/K] | unfolding enthalpy (van 't Hoff) (CD) [kcal/mol] | ddG of mutation (higher = less stable) (75 °C, DSC, NaCl 0-2 M) [kcal/mol] | heat capacity change of unfolding (75 °C, DSC, NaCl 0-2 M) [kcal/mol/K] | ddG of mutation (higher = less stable) (75 °C, DSC, NaCl 2 M) [kcal/mol] | heat capacity change of unfolding (75 °C, DSC, NaCl 2 M) [kcal/mol/K] | ddG of mutation (higher = less stable) (75 °C, DSC) [kcal/mol] | heat capacity change of unfolding (75 °C, DSC) [kcal/mol/K] | Tm (DSC) [°C] | change of melting temperature, mutant - wild type (higher = more stable) (DSC) [°C] | heat capacity change of unfolding (DSC) [kcal/mol/K] | unfolding enthalpy (calorimetric) (DSC) [kcal/mol]
E50K | 0.76 | 0.96 | -0.26 | 0.96 | 0.5 | 0.96 | 73.5 | -3.4 | 0.96 | 43.3 |  |  |  |  |  |  |  |  |  | 
H29E |  |  |  |  |  |  |  |  |  |  | 0.29 | 0.96 | 0.48 | 0.96 | 0.76 | 0.96 |  |  |  | 
E12K | 0.1 | 0.96 | 0.29 | 0.96 | 0.43 | 0.96 |  |  |  |  |  |  |  |  |  |  |  |  |  | 
N55K | 0.29 | 0.96 | -0.19 | 0.96 | -0.1 | 0.96 | 77.7 | 0.8 | 0.96 | 55.2 |  |  |  |  |  |  |  |  |  | 
E46K |  |  |  |  |  |  |  |  |  |  | 0.43 | 0.96 | 0.22 | 0.96 | 0.65 | 0.96 | 74 | -2.9 | 0.96 | 114
E21K | 0.43 | 0.96 | -0.17 | 0.96 | 0.26 | 0.96 | 75.4 | -1.5 | 0.96 | 49 |  |  |  |  |  |  |  |  |  | 
R56E | -0.53 | 0.96 | -0.24 | 0.96 | -0.76 | 0.96 |  |  |  |  |  |  |  |  |  |  |  |  |  | 
E36K | 0.98 | 0.96 | -0.79 | 0.96 | 0.19 | 0.96 | 76 | -0.9 | 0.96 | 45.6 |  |  |  |  |  |  |  |  |  | 

Reference: FireProtDB (doi:10.1093/protein/gzl019)
